Each block holds one molecule with its values, some of them ahead of it.
How the values were obtained:
[1] = target: truncated extracellular domain of SIDT2 (SIDT2^ECD) (human); assay: AUC; sedimentation velocity (SV-AUC) of the truncated ECDs in solution, no RNA
[2] = target: the molecule itself; assay: cryo-EM structure; single-particle cryo-EM of SIDT1 (3.33 Å) and SIDT2 (3.17 Å); homodimers with a two-fold axis

stoichiometry N [1]: 2
Molecule: truncated extracellular domain of SIDT2 (SIDT2^ECD) (domain or fragment)

B1: human SIDT2, full-length (purified, used for cryo-EM and blue native gel) (natural protein, UniProt Q8NBJ9 19-832, looked up)
chain: HLGVLGPKNVSQKDAEFERTYVDEVNSELVNIYTFNHTVTRNRTEGVRVSVNVLNKQKGAPLLFVVRQKEAVVSFQVPLILRGMFQRKYLYQKVERTLCQPPTKNESEIQFFYVDVSTLSPVNTTYQLRVSRMDDFVLRTGEQFSFNTTAAQPQYFKYEFPEGVDSVIVKVTSNKAFPCSVISIQDVLCPVYDLDNNVAFIGMYQTMTKKAAITVQRKDFPSNSFYVVVVVKTEDQACGGSLPFYPFAEDEPVDQGHRQKTLSVLVSQAVTSEAYVSGMLFCLGIFLSFYLLTVLLACWENWRQKKKTLLVAIDRACPESGHPRVLADSFPGSSPYEGYNYGSFENVSGSTDGLVDSAGTGDLSYGYQGRSFEPVGTRPRVDSMSSVEEDDYDTLTDIDSDKNVIRTKQYLYVADLARKDKRVLRKKYQIYFWNIATIAVFYALPVVQLVITYQTVVNVTGNQDICYYNFLCAHPLGNLSAFNNILSNLGYILLGLLFLLIILQREINHNRALLRNDLCALECGIPKHFGLFYAMGTALMMEGLLSACYHVCPNYTNFQFDTSFMYMIAGLCMLKLYQKRHPDINASAYSAYACLAIVIFFSVLGVVFGKGNTAFWIVFSIIHIIATLLLSTQLYYMGRWKLDSGIFRRILHVLYTDCIRQCSGPLYVDRMVLLVMGNVINWSLAAYGLIMRPNDFASYLLAIGICNLLLYFAFYIIMKLRSGERIKLIPLLCIVCTSVVWGFALFFFFQGLSTWQKTPAESREHNRDCILLDFFDDHDIWHFLSSIAMFGSFLVLLTLDDDLDTVQRDKIYVF
modifications: N-glycosylation (six sites on the ECD resolved in the EM map); disulfide bonds
notes: SIDT2, human, full-length; Homodimer in the cryo-EM map; the self rows mean protomer with protomer; also called SID-1 transmembrane family member 2; source: cloned, expressed and purified
stoichiometry N [2]: 2

B2: human SIDT1, full-length (purified, used for cryo-EM and blue native gel) (natural protein, UniProt Q9NXL6 20-827, looked up)
chain: ASPGHPAKSPRQPPAPRRDPFDAARGADFDHVYSGVVNLSTENIYSFNYTSQPDQVTAVRVYVNSSSENLNYPVLVVVRQQKEVLSWQVPLLFQGLYQRSYNYQEVSRTLCPSEATNETGPLQQLIFVDVASMAPLGAQYKLLVTKLKHFQLRTNVAFHFTASPSQPQYFLYKFPKDVDSVIIKVVSEMAYPCSVVSVQNIMCPVYDLDHNVEFNGVYQSMTKKAAITLQKKDFPGEQFFVVFVIKPEDYACGGSFFIQEKENQTWNLQRKKNLEVTIVPSIKESVYVKSSLFSVFIFLSFYLGCLLVGFVHYLRFQRKSIDGSFGSNDGSGNMVASHPIAASTPEGSNYGTIDESSSSPGRQMSSSDGGPPGQSDTDSSVEESDFDTMPDIESDKNIIRTKMFLYLSDLSRKDRRIVSKKYKIYFWNIITIAVFYALPVIQLVITYQTVVNVTGNQDICYYNFLCAHPLGVLSAFNNILSNLGHVLLGFLFLLIVLRRDILHRRALEAKDIFAVEYGIPKHFGLFYAMGIALMMEGVLSACYHVCPNYSNFQFDTSFMYMIAGLCMLKLYQTRHPDINASAYSAYASFAVVIMVTVLGVVFGKNDVWFWVIFSAIHVLASLALSTQIYYMGRFKIDLGIFRRAAMVFYTDCIQQCSRPLYMDRMVLLVVGNLVNWSFALFGLIYRPRDFASYMLGIFICNLLLYLAFYIIMKLRSSEKVLPVPLFCIVATAVMWAAALYFFFQNLSSWEGTPAESREKNRECILLDFFDDHDIWHFLSATALFFSFLVLLTLDDDLDVVRRDQIPVF
modifications: N-glycosylation (three sites resolved in the EM map); disulfide bonds C130-C222 and C212-C271
notes: SIDT1, human, full-length; Homodimer in the cryo-EM map; the self rows mean protomer with protomer; also called SID-1 transmembrane family member 1; source: cloned, expressed and purified
stoichiometry N [2]: 2

— publication PMC10770124, “Cryo-EM structures of human SID-1 transmembrane family proteins and implications for their low-pH-dependent RNA transport activity” (Cell Research, 2023)
